Test results: patent US20240309103A1 (Regeneron, published 2024)

How the values were obtained:
mfNPR1-mFc:hBNP complex = target: T1, mfNPR1-mFc:hBNP complex (monkey; human, UniProt P16860 103-134); test: SPR, mAb captured, 25C
T1 construct: also called monkey NPR1 complexed to BNP
Description: (§1) Equilibrium dissociation constant (KD) for different NPR1 reagents binding to purified anti-NPR1 monoclonal antibodies (mAbs) were determined using a real-time surface plasmon resonance based Biacore 4000 biosensor. All binding studies were performed in 10 mM HEPES, 150 mM NaCl, 3 mM EDTA, and 0.05% v/v Surfactant Tween-20, pH 7.4 (HBS-ET) running buffer at 25° C. and 37° C. The Biacore CM5 sensor chip surface was first derivatized by amine coupling with either mouse anti-human Fc specific mAb (GE Healthcare, #BR100839) or goat anti-human Fcy specific polyclonal antibody (Jackson ImmunoResearch Laboratories, #BR-1008-39) to capture anti-NPR1 mAbs.

mfNPR1-mFc:hANP complex [1] = target: T2, mfNPR1-mFc:hANP complex (monkey; human, UniProt P01160 124-151); test: SPR, mAb captured, 25C
T2 construct: also called monkey NPR1 complexed to ANP
Description: as §1

hNPR1-mFc:hBNP complex [2] = target: T3, hNPR1-mFc:hBNP complex (human, UniProt P16860 103-134); test: SPR, mAb captured, 25C
T3 construct: also called human NPR1 complexed to BNP
Description: as §1

mfNPR1-mFc [3] = target: T4, mfNPR1-mFc (monkey); test: SPR, mAb captured, 25C
T4 construct: also called dimeric monkey NPR1
T4 chain: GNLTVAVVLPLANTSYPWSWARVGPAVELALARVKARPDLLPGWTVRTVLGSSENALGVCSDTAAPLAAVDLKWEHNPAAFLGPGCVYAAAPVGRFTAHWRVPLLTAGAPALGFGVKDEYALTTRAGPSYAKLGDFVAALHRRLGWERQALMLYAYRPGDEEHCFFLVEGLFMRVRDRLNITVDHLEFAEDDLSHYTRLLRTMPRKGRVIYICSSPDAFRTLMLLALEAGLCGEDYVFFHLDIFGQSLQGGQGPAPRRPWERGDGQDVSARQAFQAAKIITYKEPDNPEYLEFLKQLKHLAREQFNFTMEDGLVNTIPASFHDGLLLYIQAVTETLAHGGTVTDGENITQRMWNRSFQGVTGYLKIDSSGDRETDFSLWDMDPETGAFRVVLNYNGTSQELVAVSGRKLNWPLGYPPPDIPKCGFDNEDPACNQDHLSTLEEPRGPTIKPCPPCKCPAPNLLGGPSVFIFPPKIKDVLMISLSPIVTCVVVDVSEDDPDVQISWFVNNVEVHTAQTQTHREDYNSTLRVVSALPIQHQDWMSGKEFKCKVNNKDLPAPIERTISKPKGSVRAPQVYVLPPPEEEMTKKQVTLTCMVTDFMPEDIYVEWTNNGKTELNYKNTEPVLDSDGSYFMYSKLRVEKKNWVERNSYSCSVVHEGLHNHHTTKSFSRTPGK
Description: as §1

[4] = target: T5, hNPR1-mFc:hANP or hNPR1-hFc:hANP complex (human, UniProt P01160 124-151); test: SPR, mAb captured, 25C
T5 construct: also called human NPR1 complexed to ANP
Description: as §1

mfNPR1-mFc:hANP complex [5] = target: T2, mfNPR1-mFc:hANP complex; test: SPR, mAb captured, 37C
Description: as §1

hNPR1-mFc:hBNP complex [6] = target: T3, hNPR1-mFc:hBNP complex; test: SPR, mAb captured, 37C
Description: as §1

mfNPR1-mFc [7] = target: T4, mfNPR1-mFc; test: SPR, mAb captured, 37C
Description: as §1

[8] = target: T5, hNPR1-mFc:hANP or hNPR1-hFc:hANP complex; test: SPR, mAb captured, 37C
Description: as §1

B1: mAb25497 (antibody, human IgG4, V domains shown)
VH: QVQLVQSGAEVKEPGASVKVSCKASGYTFTDYYIHWVRQAPGQGLEWMGWINLNSGGKNHAQKFQGRVTVTSDTSINTAYIELGRLRGDDTAVYYCSRGGGSHYYYYYHGMDVWGQGTTVTVSS
VL: DIQMTQSPSSLSASVGDRITITCRASHSIDSYLNWYQQKPGKAPKLLIYPASTLQSGVPSRFSGSGSGTDFTLTISSLQPEDSAIYYCQQSYSTPLTFGGGTKVEIK
100 nM Ag Bound (RU) (mfNPR1-mFc:hBNP complex): 93 RU | Kd (mfNPR1-mFc:hBNP complex): 0.32 nM | koff (mfNPR1-mFc:hBNP complex): 4.47e-05 s⁻¹ | kon (mfNPR1-mFc:hBNP complex): 140000 M⁻¹ s⁻¹ | t½ (mfNPR1-mFc:hBNP complex): 4.31 h | 100 nM Ag Bound (RU) (mfNPR1-mFc:hANP complex [1]): 95 RU | Kd (mfNPR1-mFc:hANP complex [1]): 0.24 nM | koff (mfNPR1-mFc:hANP complex [1]): 3.75e-05 s⁻¹ | kon (mfNPR1-mFc:hANP complex [1]): 156000 M⁻¹ s⁻¹ | t½ (mfNPR1-mFc:hANP complex [1]): 5.13 h | 100 nM Ag Bound (RU) (hNPR1-mFc:hBNP complex [2]): 59 RU | Kd (hNPR1-mFc:hBNP complex [2]): 0.358 nM | koff (hNPR1-mFc:hBNP complex [2]): 5.49e-05 s⁻¹ | kon (hNPR1-mFc:hBNP complex [2]): 153000 M⁻¹ s⁻¹ | t½ (hNPR1-mFc:hBNP complex [2]): 3.51 h | 100 nM Ag Bound (RU) (mfNPR1-mFc [3]): 76 RU | Kd (mfNPR1-mFc [3]): 0.337 nM | koff (mfNPR1-mFc [3]): 5.79e-05 s⁻¹ | kon (mfNPR1-mFc [3]): 172000 M⁻¹ s⁻¹ | t½ (mfNPR1-mFc [3]): 3.32 h | 100 nM Ag Bound (RU) [4]: 59 RU | Kd [4]: 0.279 nM | koff [4]: 4.56e-05 s⁻¹ | kon [4]: 163000 M⁻¹ s⁻¹ | t½ [4]: 4.22 h | 100 nM Ag Bound (RU) (mfNPR1-mFc:hANP complex [5]): 102 RU | Kd (mfNPR1-mFc:hANP complex [5]): 2.6 nM | koff (mfNPR1-mFc:hANP complex [5]): 0.000152 s⁻¹ | kon (mfNPR1-mFc:hANP complex [5]): 58400 M⁻¹ s⁻¹ | t½ (mfNPR1-mFc:hANP complex [5]): 1.27 h | 100 nM Ag Bound (RU) (hNPR1-mFc:hBNP complex [6]): 59 RU | Kd (hNPR1-mFc:hBNP complex [6]): 2.35 nM | koff (hNPR1-mFc:hBNP complex [6]): 0.000116 s⁻¹ | kon (hNPR1-mFc:hBNP complex [6]): 49200 M⁻¹ s⁻¹ | t½ (hNPR1-mFc:hBNP complex [6]): 1.66 h | 100 nM Ag Bound (RU) (mfNPR1-mFc [7]): 79 RU | Kd (mfNPR1-mFc [7]): 5.2 nM | koff (mfNPR1-mFc [7]): 0.000221 s⁻¹ | kon (mfNPR1-mFc [7]): 42500 M⁻¹ s⁻¹ | t½ (mfNPR1-mFc [7]): 0.872 h | 100 nM Ag Bound (RU) [8]: 60 RU | Kd [8]: 2.09 nM | koff [8]: 0.000102 s⁻¹ | kon [8]: 48500 M⁻¹ s⁻¹ | t½ [8]: 1.9 h

B2: mAb25491 (antibody, human IgG4, V domains shown)
VH: QVQLVQSGAEVMKPGASVKVSCKASGYTFTGYYIHWVRQAPGQGLEWMGWITPNSGATNYAQKFQGRVTLTRDTSISTAYMELTRLKSDDTAVYYCARGGQLEFFYYYYGMDVWGQGTTVTVSS
VL: DIQMTQSPSSLSASAGDRVTITCRASQSIDSYLNWYQQKPGKAPKLLISATSGFQSGVPSRFSGSGSGTDFTLTISSLQPEDFGTYYCQQSYTTPITFGQGTRLEIK
100 nM Ag Bound (RU) (mfNPR1-mFc:hBNP complex): 110 RU | Kd (mfNPR1-mFc:hBNP complex): 0.632 nM | koff (mfNPR1-mFc:hBNP complex): 3.71e-05 s⁻¹ | kon (mfNPR1-mFc:hBNP complex): 58600 M⁻¹ s⁻¹ | t½ (mfNPR1-mFc:hBNP complex): 5.19 h | 100 nM Ag Bound (RU) (mfNPR1-mFc:hANP complex [1]): 111 RU | Kd (mfNPR1-mFc:hANP complex [1]): 0.757 nM | koff (mfNPR1-mFc:hANP complex [1]): 4.55e-05 s⁻¹ | kon (mfNPR1-mFc:hANP complex [1]): 60100 M⁻¹ s⁻¹ | t½ (mfNPR1-mFc:hANP complex [1]): 4.23 h | 100 nM Ag Bound (RU) (hNPR1-mFc:hBNP complex [2]): 72 RU | Kd (hNPR1-mFc:hBNP complex [2]): 0.908 nM | koff (hNPR1-mFc:hBNP complex [2]): 4.96e-05 s⁻¹ | kon (hNPR1-mFc:hBNP complex [2]): 54600 M⁻¹ s⁻¹ | t½ (hNPR1-mFc:hBNP complex [2]): 3.88 h | 100 nM Ag Bound (RU) (mfNPR1-mFc [3]): 81 RU | Kd (mfNPR1-mFc [3]): 1.4 nM | koff (mfNPR1-mFc [3]): 7.54e-05 s⁻¹ | kon (mfNPR1-mFc [3]): 54000 M⁻¹ s⁻¹ | t½ (mfNPR1-mFc [3]): 2.55 h | 100 nM Ag Bound (RU) [4]: 71 RU | Kd [4]: 0.794 nM | koff [4]: 4.15e-05 s⁻¹ | kon [4]: 52200 M⁻¹ s⁻¹ | t½ [4]: 4.64 h | 100 nM Ag Bound (RU) (mfNPR1-mFc:hANP complex [5]): 148 RU | Kd (mfNPR1-mFc:hANP complex [5]): 1.49 nM | koff (mfNPR1-mFc:hANP complex [5]): 0.000106 s⁻¹ | kon (mfNPR1-mFc:hANP complex [5]): 71000 M⁻¹ s⁻¹ | t½ (mfNPR1-mFc:hANP complex [5]): 1.82 h | 100 nM Ag Bound (RU) (hNPR1-mFc:hBNP complex [6]): 96 RU | Kd (hNPR1-mFc:hBNP complex [6]): 2.45 nM | koff (hNPR1-mFc:hBNP complex [6]): 0.000134 s⁻¹ | kon (hNPR1-mFc:hBNP complex [6]): 54700 M⁻¹ s⁻¹ | t½ (hNPR1-mFc:hBNP complex [6]): 1.44 h | 100 nM Ag Bound (RU) (mfNPR1-mFc [7]): 114 RU | Kd (mfNPR1-mFc [7]): 3.49 nM | koff (mfNPR1-mFc [7]): 0.000164 s⁻¹ | kon (mfNPR1-mFc [7]): 47000 M⁻¹ s⁻¹ | t½ (mfNPR1-mFc [7]): 1.17 h | 100 nM Ag Bound (RU) [8]: 96 RU | Kd [8]: 1.95 nM | koff [8]: 0.000111 s⁻¹ | kon [8]: 56900 M⁻¹ s⁻¹ | t½ [8]: 1.73 h
